# T1: KtrA (VaKtrA, KtrAC3H) (Vibrio alginolyticus, UniProt O87952)
# T1 construct: full-length cytosolic RCK subunit, C-terminal 3C-cleavable His tag (KtrAC3H), eluted with imidazole (tag kept), expressed in E. coli C43(DE3)ΔacrAB; homooctameric ring
# T1 sequence (O87952 1-220): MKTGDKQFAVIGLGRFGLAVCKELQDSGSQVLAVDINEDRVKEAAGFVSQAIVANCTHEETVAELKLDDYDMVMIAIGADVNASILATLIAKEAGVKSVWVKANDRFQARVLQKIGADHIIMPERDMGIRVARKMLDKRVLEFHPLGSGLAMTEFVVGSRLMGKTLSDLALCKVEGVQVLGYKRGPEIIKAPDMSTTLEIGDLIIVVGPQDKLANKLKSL
# T2: KtrAB (KtrB2A8B2 complex) (Vibrio alginolyticus, UniProt O87952)
# T2 construct: gene ktrA; nonphysiological assembly with a second KtrB dimer on the KtrA octamer; full-length, in DDM; wild type purified via ATP agarose; KtrA C-terminal His tag removed by 3C protease; with Ktr system potassium uptake protein B
# T2 sequence (O87952 1-220): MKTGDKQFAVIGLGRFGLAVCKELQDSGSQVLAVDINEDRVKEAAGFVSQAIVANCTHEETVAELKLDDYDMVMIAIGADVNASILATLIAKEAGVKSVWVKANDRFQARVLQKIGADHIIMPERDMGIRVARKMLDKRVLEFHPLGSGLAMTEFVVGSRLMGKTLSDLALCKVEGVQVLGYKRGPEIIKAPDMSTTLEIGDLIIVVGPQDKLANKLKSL
# T2 sequence (O87953 1-455 partner): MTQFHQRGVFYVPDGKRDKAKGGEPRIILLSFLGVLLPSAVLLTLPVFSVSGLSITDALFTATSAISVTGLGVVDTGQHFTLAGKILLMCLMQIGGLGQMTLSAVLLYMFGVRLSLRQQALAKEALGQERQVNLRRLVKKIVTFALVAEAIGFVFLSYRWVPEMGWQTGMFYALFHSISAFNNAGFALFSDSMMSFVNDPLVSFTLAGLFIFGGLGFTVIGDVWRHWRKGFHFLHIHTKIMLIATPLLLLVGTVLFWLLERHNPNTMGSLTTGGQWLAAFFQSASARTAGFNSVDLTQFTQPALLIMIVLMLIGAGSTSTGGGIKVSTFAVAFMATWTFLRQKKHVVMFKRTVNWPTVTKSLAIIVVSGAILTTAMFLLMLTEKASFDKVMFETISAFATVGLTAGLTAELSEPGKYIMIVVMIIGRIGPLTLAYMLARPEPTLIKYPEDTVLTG
# T3: KtrAB (native KtrB2A8 complex) (Vibrio alginolyticus, UniProt O87952)
# T3 construct: gene ktrA; full-length complex in DDM; tagless KtrB membranes (E. coli LB2003) mixed with KtrA (C-terminal His tag, removed by 3C protease); KtrA octamer with one KtrB dimer; with Ktr system potassium uptake protein B
# T3 sequence (O87952 1-220): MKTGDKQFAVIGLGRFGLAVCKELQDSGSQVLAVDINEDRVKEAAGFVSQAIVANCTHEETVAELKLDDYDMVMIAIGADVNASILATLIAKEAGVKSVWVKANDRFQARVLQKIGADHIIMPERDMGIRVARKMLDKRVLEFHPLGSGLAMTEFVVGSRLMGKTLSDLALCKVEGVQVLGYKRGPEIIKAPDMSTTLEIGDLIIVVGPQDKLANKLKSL
# T3 sequence (O87953 1-455 partner): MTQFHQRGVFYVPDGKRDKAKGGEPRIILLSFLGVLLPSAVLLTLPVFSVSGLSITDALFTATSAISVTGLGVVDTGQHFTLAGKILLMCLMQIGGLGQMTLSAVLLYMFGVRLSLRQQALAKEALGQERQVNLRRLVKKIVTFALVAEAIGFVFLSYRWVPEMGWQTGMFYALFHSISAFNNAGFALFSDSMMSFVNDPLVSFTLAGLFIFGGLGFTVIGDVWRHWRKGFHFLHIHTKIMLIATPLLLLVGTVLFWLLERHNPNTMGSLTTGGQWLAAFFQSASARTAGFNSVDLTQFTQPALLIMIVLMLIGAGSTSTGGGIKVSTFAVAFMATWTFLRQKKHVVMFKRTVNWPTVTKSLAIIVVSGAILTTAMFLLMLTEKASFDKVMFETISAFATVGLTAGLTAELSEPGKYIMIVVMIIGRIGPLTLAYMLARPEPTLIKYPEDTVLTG
# B1: KtrB from Vibrio alginolyticus, tagless, full length (natural protein, UniProt O87953 1-455, looked up)
# chain: MTQFHQRGVFYVPDGKRDKAKGGEPRIILLSFLGVLLPSAVLLTLPVFSVSGLSITDALFTATSAISVTGLGVVDTGQHFTLAGKILLMCLMQIGGLGQMTLSAVLLYMFGVRLSLRQQALAKEALGQERQVNLRRLVKKIVTFALVAEAIGFVFLSYRWVPEMGWQTGMFYALFHSISAFNNAGFALFSDSMMSFVNDPLVSFTLAGLFIFGGLGFTVIGDVWRHWRKGFHFLHIHTKIMLIATPLLLLVGTVLFWLLERHNPNTMGSLTTGGQWLAAFFQSASARTAGFNSVDLTQFTQPALLIMIVLMLIGAGSTSTGGGIKVSTFAVAFMATWTFLRQKKHVVMFKRTVNWPTVTKSLAIIVVSGAILTTAMFLLMLTEKASFDKVMFETISAFATVGLTAGLTAELSEPGKYIMIVVMIIGRIGPLTLAYMLARPEPTLIKYPEDTVLTG
# notes: KtrB, transmembrane pore-forming subunit of the K+ channel KtrAB, Vibrio alginolyticus; C-terminal residue G455; Homodimer; It was in DDM for the deposited structures and in MSP2N2 nanodiscs with E. coli polar lipids for one cryo-EM data set; also called VaKtrB; KtrB dimer; source: E. coli LB2003, membranes mixed with KtrA-containing cytosol, solubilised in DDM, co-purified with KtrA (Ni-NTA, …)
# B2: KtrB from Vibrio alginolyticus with deletion of residues 2-19 (natural protein)
# chain: MAKGGEPRIILLSFLGVLLPSAVLLTLPVFSVSGLSITDALFTATSAISVTGLGVVDTGQHFTLAGKILLMCLMQIGGLGQMTLSAVLLYMFGVRLSLRQQALAKEALGQERQVNLRRLVKKIVTFALVAEAIGFVFLSYRWVPEMGWQTGMFYALFHSISAFNNAGFALFSDSMMSFVNDPLVSFTLAGLFIFGGLGFTVIGDVWRHWRKGFHFLHIHTKIMLIATPLLLLVGTVLFWLLERHNPNTMGSLTTGGQWLAAFFQSASARTAGFNSVDLTQFTQPALLIMIVLMLIGAGSTSTGGGIKVSTFAVAFMATWTFLRQKKHVVMFKRTVNWPTVTKSLAIIVVSGAILTTAMFLLMLTEKASFDKVMFETISAFATVGLTAGLTAELSEPGKYIMIVVMIIGRIGPLTLAYMLARPEPTLIKYPEDTVLTG
# notes: KtrB, Vibrio alginolyticus, with the N-terminal residues 2-19 deleted; Two KtrB dimers stand in the solved assembly: KtrBΔ2-19_(4)A8, deposited as KtrB2A8B2 with the N-terminal KtrB deletion; also called KtrBΔ2-19; KtrAB_(Δ2-19); source: purified as a complex with KtrA (SEC)
# How the values were obtained:
# KtrA (VaKtrA, KtrAC3H) [1] = molecular target: T1, KtrA (VaKtrA, KtrAC3H); test: differential scanning fluorimetry (SYPRO Orange); type: binding; conditions: pH 7.5, 20 mM Tris-HCl, 140 mM NaCl, 60 mM KCl; 5 µM KtrA; melting temperature with ligand, not a shift
# KtrA (VaKtrA, KtrAC3H) [2] = molecular target: T1, KtrA (VaKtrA, KtrAC3H); test: isothermal titration calorimetry; type: binding; conditions: pH 8, 24 °C, 20 mM HEPES, 140 mM NaCl, 60 mM KCl; one-site fit; no KtrB
# [3] = molecular target: T2, KtrAB (KtrB2A8B2 complex); test: cryo-EM structure, […] Å; type: binding; conditions: ADP found despite ATP agarose and ATP in the sample; Mg2+ at alpha-phosphate
# [4] = molecular target: T3, KtrAB (native KtrB2A8 complex); test: cryo-EM structure, […] Å; type: binding; conditions: co-purified ADP, sample prepared with ATP and MgCl2
# [5] = molecular target: the molecule itself; test: cryo-EM structure; natively assembled KtrB2A8 complex in DDM, 2.8 Å, C2 symmetry; sample supplemented with 1 mM ATP and 2 mM MgCl2, ADP found bound
# [6] = molecular target: B1; test: as above; conditions: both partners purified
# [7] = molecular target: B2; test: cryo-EM structure; KtrAB with KtrB Δ2-19, KtrBΔ2-19_(4)A8 assembly, supplemented with 1 mM ATP, 3.6 Å, 58,000 particles; conditions: both partners purified
# [8] = molecular target: B1; test: cryo-EM structure; nonphysiological KtrB2A8B2 assembly purified via ATP agarose, in DDM, 2.5 Å, D2 symmetry; 1 mM ATP and 2 mM MgCl2, ADP found bound; conditions: both partners purified
# [9] = molecular target: the molecule itself; test: as above
# [10] = molecular target: the molecule itself; test: cryo-EM structure; KtrAB with KtrB Δ2-19, KtrBΔ2-19_(4)A8 assembly, supplemented with 1 mM ATP, 3.6 Å, 58,000 particles
molecule,measurement,setting,value
Nc1ncnc2c1ncn2[C@@H]1O[C@H](COP(=O)(O)OP(=O)(O)OP(=O)(O)O)[C@@H](O)[C@H]1O [ATP],Tm,"KtrA (VaKtrA, KtrAC3H) [1]",55 °C
same,Kd,"KtrA (VaKtrA, KtrAC3H) [2]",2400 nM
Nc1ncnc2c1ncn2[C@@H]1O[C@H](COP(=O)(O)OP(=O)(O)O)[C@@H](O)[C@H]1O [ADP],"cryo-EM structure, 2.5 Å",[3],ADP molecules bound to the N lobes of each of the eight KtrA subunits
same,Tm,"KtrA (VaKtrA, KtrAC3H) [1]",67 °C
same,"cryo-EM structure, 2.8 Å",[4],KtrA ring contains non-protein densities corresponding to ADP molecules
same,Kd,"KtrA (VaKtrA, KtrAC3H) [2]",3400 nM
B1,stoichiometry N,[5],2
"KtrA from Vibrio alginolyticus, His tag cleaved off with 3C protease (natively assembled KtrB2A8 preparation) (natural protein, UniProt O87952 1-220, looked up, KtrA, cytosolic RCK subunit of the K+ channel KtrAB, Vibrio alginolyticus; full-length KtrAB; Residues of the 3C site may remain at the C-terminus after cleavage; also called VaKtrA; KtrAC3H; source: E. coli C43(DE3)ΔacrAB; not shown: His tag, C-terminal, cleaved) MKTGDKQFAVIGLGRFGLAVCKELQDSGSQVLAVDINEDRVKEAAGFVSQAIVANCTHEETVAELKLDDYDMVMIAIGADVNASILATLIAKEAGVKSVWVKANDRFQARVLQKIGADHIIMPERDMGIRVARKMLDKRVLEFHPLGSGLAMTEFVVGSRLMGKTLSDLALCKVEGVQVLGYKRGPEIIKAPDMSTTLEIGDLIIVVGPQDKLANKLKSL",binding result,[6],binds
same,stoichiometry N,[5],8
"KtrA from Vibrio alginolyticus with C-terminal His tag (KtrAC3H), eluted with imidazole (natural protein, UniProt O87952 1-220, looked up, KtrA, cytosolic RCK subunit of the K+ channel KtrAB, Vibrio alginolyticus; full-length KtrAB; Same construct as m1; Here no 3C cleavage is reported: imidazole elution for isolated KtrA, and imidazole removal is mentioned before the ATP agarose step; also called VaKtrA; isolated KtrA ring; source: E. coli C43(DE3)ΔacrAB, purified (Ni-NTA eluted with imidazole, SEC); for KtrB2A8B2 also ATP agarose) MKTGDKQFAVIGLGRFGLAVCKELQDSGSQVLAVDINEDRVKEAAGFVSQAIVANCTHEETVAELKLDDYDMVMIAIGADVNASILATLIAKEAGVKSVWVKANDRFQARVLQKIGADHIIMPERDMGIRVARKMLDKRVLEFHPLGSGLAMTEFVVGSRLMGKTLSDLALCKVEGVQVLGYKRGPEIIKAPDMSTTLEIGDLIIVVGPQDKLANKLKSL",binding result,[7],binds
same,binding result,[8],binds
same,stoichiometry N,[9],8
B2,binding result,[10],binds

# From article PMC12059179, “A short intrinsically disordered region at KtrB’s N-terminus facilitates allosteric regulation of K^+ channel KtrAB” (Nature Communications, 2025)
